Test results from paper PMC4917968.
pKd: −log10 of the molar value.

Legend:
[1] = molecular target: Full-length mouse eRF1 (mouse) (UniProt Q8BWY3); test: ITC; 22 °C, MicroCal VP-ITC; 20 mM HEPES pH 7.5, 150 mM NaCl, 5 mM TCEP; injectant protein 220-300 μM into a cell with 13-20 μM protein; single-site model
[2] = molecular target: Full-length mouse eRF1 (mouse) (UniProt Q8BWY3); test: ITC; competition: RNase H (WT or mutant) titrated to the preformed eRF1/eRF3 complex; apparent Kd; 22 °C, 20 mM HEPES pH 7.5, 150 mM NaCl, 5 mM TCEP; single-site model

Substance: RNase H mutant F588A (isolated RNase H domain of MoMLV RT) (domain or fragment)
- fold reduction of binding against WT RNase H [1]: 10 fold

Substance: Isolated RNase H domain of MoMLV RT (aa 500–671) (domain or fragment)
- pKd [2]: 5.25
- pKd [1]: 5.38
